Test results: patent US20260144882A1 (BIO THERA SOLUTIONS, published 2026)
Positions count from the first letter of the chain named. Like-named read-outs stand apart in the source and are kept apart here.

T1: human Nectin-4 extracellular antigen hNectin-4-His (human, UniProt Q96NY8 32-349)
T1 construct: C-terminal 8xHis tag included
T1 sequence: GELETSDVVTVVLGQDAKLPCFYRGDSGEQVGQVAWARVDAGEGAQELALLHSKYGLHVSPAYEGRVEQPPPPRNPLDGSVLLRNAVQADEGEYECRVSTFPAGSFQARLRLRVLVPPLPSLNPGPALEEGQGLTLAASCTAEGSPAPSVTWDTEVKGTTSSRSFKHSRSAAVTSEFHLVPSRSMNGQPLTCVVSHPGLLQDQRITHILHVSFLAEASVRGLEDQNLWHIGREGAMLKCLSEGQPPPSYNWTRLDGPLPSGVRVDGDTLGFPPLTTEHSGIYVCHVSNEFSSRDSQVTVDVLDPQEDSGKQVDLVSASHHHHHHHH

B1: 10F4-2B11 scFv (scFv, V domains shown)
VH: EVQLVESGGGLVQPGGSLRLSCAASGGSFTNYWMSWVRQAPGKGLEWVSVIDSTGSNRFYADSVKGRFTISRDNSKNTLYLQMNSLRAEDTAVYYCAREYSDVVDYVSVRTPLDYWGQGTLVTVSS
VL: DIQMTQSPSSLSASVGDRVTITCRASQGISSYLAWYQQKPGKAPKLLIYAASSLQSGVPSRFSGSGSGTDFTLTISSLQPEDFATYYCQQHYTTPPTFGQGTKVEIKR
notes: phage clone supernatant
B2: 10F4-2C2 scFv (scFv, V domains shown)
VH: B1 VH with G27F, S28N, T30S, S53A, T54H, G55S, S56A, R58I, F59R
VL: B1 VL
notes: phage clone supernatant
B3: antibody 1F3-1H3 (antibody, human IgG1, kappa, V domains shown)
VH: EVQLVESGGGLVQPGGSLRLSCAASGFNFYNYGMSWVRQAPGKGLEWVSGIKPHSDVAHYADSVKGRFTISRDNSKNTLYLQMNSLRAEDTAVYYCARAELLAFDVYTASDYWGQGTLVTVSS
VL: B1 VL
B4: 1G8-1C12 scFv (scFv, V domains shown)
VH: EVQLVESGGGLVQPGGSLRLSCAASGGSFYGFGMSWVRQAPGKGLEWVSGIYSHDADKRYADSVKGRFTISRDNSKNTLYLQMNSLRAEDTAVYYCARQTEDRSYGYDLDYWGQGTLVTVSS
VL: B1 VL
notes: phage clone supernatant
B5: antibody 1F3-1F4 (antibody, human IgG1, kappa, V domains shown)
VH: EVQLVESGGGLVQPGGSLRLSCAASGDIFTGSSMSWVRQAPGKGLEWVSGIYASGSDKRYADSVKGRFTISRDNSKNTLYLQMNSLRAEDTAVYYCARAELLAFDVYTASDYWGQGTLVTVSS
VL: B1 VL
B6: antibody 1G8-2B3 (antibody, human IgG1, kappa, V domains shown)
VH: EVQLVESGGGLVQPGGSLRLSCAASGYNFTTSAMSWVRQAPGKGLEWVSRIYQDSSTTDYADSVKGRFTISRDNSKNTLYLQMNSLRAEDTAVYYCARQTEDRSYGYDLDYWGQGTLVTVSS
VL: B1 VL
B7: antibody 1F3-1D12 (antibody, human IgG1, kappa, V domains shown)
VH: B5 VH with D27Y, I28N, G31D, S32Y, S33G, Y52S, A53G, S56D, D57N, R59Y
VL: B1 VL
B8: antibody 1G8-2G8 (antibody, human IgG1, kappa, V domains shown)
VH: B6 VH with Y27F, T31N, S32Y, Y52S, Q53T, D54Y, S55G, S56D, D59H
VL: B1 VL
B9: antibody 1G8-2F2 (antibody, human IgG1, kappa, V domains shown)
VH: EVQLVESGGGLVQPGGSLRLSCAASGDIFGSYAMSWVRQAPGKGLEWVSRISSHGASRDYADSVKGRFTISRDNSKNTLYLQMNSLRAEDTAVYYCARQTEDRSYGYDLDYWGQGTLVTVSS
VL: B1 VL
B10: antibody 1F3-1C4 (antibody, human IgG1, kappa, V domains shown)
VH: B3 VH with N28T, Y30G, N31D, H54W, S55G, D56S, V57G, A58T, H59Y
VL: B1 VL
B11: antibody 10F4-1F1 (antibody, human IgG1, kappa, V domains shown)
VH: B1 VH with G27F, T30S, V50A, D52S, S53P, T54G, G55D, S56G, N57T, R58I
VL: B1 VL
B12: antibody 1F3-1A9 (antibody, human IgG1, kappa, V domains shown)
VH: EVQLVESGGGLVQPGGSLRLSCAASGYSFDNYAMSWVRQAPGKGLEWVSRISPTGGYASYADSVKGRFTISRDNSKNTLYLQMNSLRAEDTAVYYCARAELLAFDVYTASDYWGQGTLVTVSS
VL: B1 VL
B13: antibody 1G8-1E10 (antibody, human IgG1, kappa, V domains shown)
VH: B9 VH with I28S, G30S, S31T, S53G, H54S, A56D, S57G, R58K
VL: B1 VL
B14: antibody 10F4-1E1 (antibody, human IgG1, kappa, V domains shown)
VH: B1 VH with G27D, S28I, T30G, V50S, S53A, T54S, G55S, S56G
VL: B1 VL
B15: antibody 1G8-2H4 (antibody, human IgG1, kappa, V domains shown)
VH: B9 VH with I28S, G30T, S31G, R50A, S53G, H54S, A56G, R58T, D59Y
VL: B1 VL
B16: antibody 1F3-1E4 (antibody, human IgG1, kappa, V domains shown)
VH: EVQLVESGGGLVQPGGSLRLSCAASGFSFGTYGMSWVRQAPGKGLEWVSRISGDSANIRYADSVKGRFTISRDNSKNTLYLQMNSLRAEDTAVYYCARAELLAFDVYTASDYWGQGTLVTVSS
VL: B1 VL
B17: antibody 1F3-2D2 (antibody, human IgG1, kappa, V domains shown)
VH: B3 VH with Y30S, N31S, G50R, K52S, H54Y, S55T, D56G, V57T, A58T
VL: B1 VL
B18: antibody 1G8-2H8 (antibody, human IgG1, kappa, V domains shown)
VH: B9 VH with R50A, S53G, H54S, A56G, R58T, D59Y
VL: B1 VL
B19: antibody 1F3-1G7 (antibody, human IgG1, kappa, V domains shown)
VH: B5 VH with T30S, G31N, S32Y, A53P, S56D, D57S, K58R
VL: B1 VL
B20: antibody 1G8-2F11 (antibody, human IgG1, kappa, V domains shown)
VH: B6 VH with N28T, T30G, T31S, S32N, Y52S, Q53P, T57G, T58I, D59S
VL: B1 VL
B21: antibody 1F3-1F8 (antibody, human IgG1, kappa, V domains shown)
VH: B16 VH with S28N, T31N, S55G, A56S, R59N
VL: B1 VL
B22: antibody 1G8-1C10 (antibody, human IgG1, kappa, V domains shown)
VH: EVQLVESGGGLVQPGGSLRLSCAASGFNFSDYSMSWVRQAPGKGLEWVSRIKASSGGSDYADSVKGRFTISRDNSKNTLYLQMNSLRAEDTAVYYCARQTEDRSYGYDLDYWGQGTLVTVSS
VL: B1 VL
B23: antibody 10F4-1C3 (antibody, human IgG1, kappa, V domains shown)
VH: B1 VH with G27Y, T30S, N31D, V50S, D52K, S53Q, S56G, N57V, R58K, F59H
VL: B1 VL
B24: antibody 1F3-2B9 (antibody, human IgG1, kappa, V domains shown)
VH: B3 VH with Y30D, N31S, G33A, S55T, V57D, A58I, H59Y
VL: B1 VL
B25: antibody 1G8-2C6 (antibody, human IgG1, kappa, V domains shown)
VH: B6 VH with Y27D, T30S, T31S, S32Y, Q53G, D54S, S55D, T58P
VL: B1 VL
B26: antibody 1G8-1G3 (antibody, human IgG1, kappa, V domains shown)
VH: B9 VH with D27F, I28N, S31T, S53G, H54I, G55S, S57G, R58T, D59N
VL: B1 VL
B27: antibody 10F4-1C10 (antibody, human IgG1, kappa, V domains shown)
VH: EVQLVESGGGLVQPGGSLRLSCAASGYNFGSYDMSWVRQAPGKGLEWVSGIKTYGGNTHYADSVKGRFTISRDNSKNTLYLQMNSLRAEDTAVYYCAREYSDVVDYVSVRTPLDYWGQGTLVTVSS
VL: B1 VL
B28: antibody 10F4-1F8 (antibody, human IgG1, kappa, V domains shown)
VH: B27 VH with N28T, G30T, S31D, G50S, K52I, Y54D, N57G, T58A, H59F
VL: B1 VL

What was measured:
[1] = target: T1, human Nectin-4 extracellular antigen …; assay: ELISA, phage scFv supernatant 1:50
[2] = target: T1, human Nectin-4 extracellular antigen …; assay: ELISA, coated hNectin-4-His
From the text: (§1) The binding activity of the antibodies was detected by ELISA.

[3] = target: T1, human Nectin-4 extracellular antigen …; assay: SPR, antibody on Protein A chip, 1:1 fit
From the text: In this study, the affinity of the antibodies for the human Nectin-4 extracellular antigen was detected by surface plasmon resonance (SPR) technique (BIAcore: GE Healthcare, T200).

[4] = target: T1, human Nectin-4 extracellular antigen …; assay: ELISA, coated hNectin-4-His; remark: listed apart in the source
From the text: as §1

Binder | OD value [1] | EC50 [2] | Kd [3] | koff [3] | kon [3] | EC50 [4]
B1 | 1.55 OD | – | – | – | – | –
B2 | 1.58 OD | – | – | – | – | –
B3 | – | 8 ng/mL | 0.62 nM | 0.00105 s⁻¹ | 1.69e+06 M⁻¹ s⁻¹ | –
B4 | 1.42 OD | – | – | – | – | –
B5 | – | 9 ng/mL | – | – | – | –
B6 | – | 5 ng/mL | 1.98 nM | 0.00147 s⁻¹ | 742000 M⁻¹ s⁻¹ | –
B7 | – | 7 ng/mL | – | – | – | –
B8 | – | 6 ng/mL | 1.87 nM | 0.00142 s⁻¹ | 758000 M⁻¹ s⁻¹ | –
B9 | – | 12 ng/mL | 2.12 nM | 0.00166 s⁻¹ | 784000 M⁻¹ s⁻¹ | –
B10 | – | 11 ng/mL | – | – | – | –
B11 | – | – | – | – | – | 57 ng/mL
B12 | – | 7 ng/mL | 0.641 nM | 0.000994 s⁻¹ | 1.55e+06 M⁻¹ s⁻¹ | –
B13 | – | 6 ng/mL | 1.31 nM | 0.00087 s⁻¹ | 665000 M⁻¹ s⁻¹ | –
B14 | – | – | – | – | – | 67 ng/mL
B15 | – | 39 ng/mL | – | – | – | –
B16 | – | – | 0.426 nM | 0.000825 s⁻¹ | 1.94e+06 M⁻¹ s⁻¹ | –
B17 | – | 15 ng/mL | – | – | – | –
B18 | – | 5 ng/mL | – | – | – | –
B19 | – | 8 ng/mL | 0.743 nM | 0.000596 s⁻¹ | 802000 M⁻¹ s⁻¹ | –
B20 | – | 4 ng/mL | – | – | – | –
B21 | – | 8 ng/mL | 0.564 nM | 0.000966 s⁻¹ | 1.71e+06 M⁻¹ s⁻¹ | –
B22 | – | 5 ng/mL | – | – | – | –
B23 | – | – | 0.589 nM | 0.000218 s⁻¹ | 370000 M⁻¹ s⁻¹ | 53 ng/mL
B24 | – | 9 ng/mL | 0.552 nM | 0.00101 s⁻¹ | 1.82e+06 M⁻¹ s⁻¹ | –
B25 | – | 5 ng/mL | 1.87 nM | 0.00137 s⁻¹ | 734000 M⁻¹ s⁻¹ | –
B26 | – | 4 ng/mL | 3 nM | 0.00141 s⁻¹ | 471000 M⁻¹ s⁻¹ | –
B27 | – | – | 0.435 nM | 0.000116 s⁻¹ | 265000 M⁻¹ s⁻¹ | 58 ng/mL
B28 | – | – | 0.558 nM | 0.000237 s⁻¹ | 424000 M⁻¹ s⁻¹ | 54 ng/mL
